This note sets out measurements from the nanobody polyreactivity screen of Harvey et al. (2022).

This data set is described as follows: yeast display, Sf9 membrane polyspecificity reagent, FACS + sequencing; frameworks hold sequencing errors. In short, it runs like this:
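Galactose-induced (36–48 hours) yeast carrying a synthetic nanobody display library were exposed to 10% biotinylated, detergent-solubilized Sf9 membrane reagent at 4 °C for 1 hour. FACS followed streptavidin microbead enrichment, using low and high (top ~1%) gates for expression (anti-HA) and reagent binding (streptavidin). Colony PCR, MiSeq 2 × 250 sequencing and CDR-length filtering followed. Labels for polyreactivity reflect the gate of origin.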
For the sequence “QVQLVESGGGLVQAGGSLRLSCAASGITFYKYVMGWYRQAPGKERELVAAISSVGSTYYADSVKGRFTISRDNAKNTVYLQMNSLKPEDTAVYYCNARVYYSTTRYYVRVDYWGQGTQVTVSS”, the “polyreactivity (PSR sort gate)” value is “high polyreactivity”.
Then “QVQLVESGGGLVQAGGSLRLSCAASGITFYKYVMGWYRQAPGKETELVAAISSVGSTYYADSVKGRFTISRDNAKNTVYLQMNSLKPEDTAVYYCAAKYWKCYHYGFGYWGQGTQVTVSS”, with “high polyreactivity”.
The same measure for “QVQLVESGGGLVQAGGSLRLSCAASGITFYLNAMVWYRQAPGKERELVADITVSGGSTYYADSVKGRFTISRDYAKNTVYLQMNRLKPEDTAVYYCAADLTISYSQEYYYWGQGTQVTVSS”: “low polyreactivity”; for “QVQLVESGGGLVQAGGSLRLSCAASGITFYPYAMGWYRQAPGKERELVAAITGSGGRTYYADSVKGRFTISRDNAKNTVYLQMNSLKPEDTAVYYCAKVARYPDMGYWGQGTQVTVSS”: “high polyreactivity”.
On to “QVQLVESGGGLVQAGGSLRLSCAASGITFYPYAMGWYRQAPGKERELVASISWSGGSTYYADSVKGRFTISRDNAKNTVYLQMNSLKPEDTAVFYCNAEYWLPYYPDYDYWGQGTQVTVSS”, for which the “polyreactivity (PSR sort gate)” value was “low polyreactivity”.
The same measure for “QVQLVESGGGLVQAGGSLRLSCAASGITFYRNAMGSYRQAPGKERELVADIDVGDGTYYADSVKGRFTISRDNCKNTVYLQMNSLKPEDTAVYYCNKTFLFLEYDSWGQGTQVTVSS”: “low polyreactivity”; for “QVQLVESGGGLVQAGGSLRLSCAASGITFYRYAMGWSRQAPGKERELVAAITWSGGSTYYADSVKGRFTISRDNAKNTVYLQMNSLKPEDTAVYYCAAVLYSPDFFGNYDYWGQGTQVTVSS”: “low polyreactivity”; for “QVQLVESGGGLVQAGGSLRLSCAASGITFYRYAMGWYREAPGKERELVAAISRSGGGTHYADTVKGRFTISRDNAMNTVYLQMYCLKPEDTAVFYCAASAYSYDYWGQGNQVTVSS”: “high polyreactivity”.
Then “QVQLVESGGGLVQAGGSLRLSCAASGITFYRYAMGWYRQAPGKERELVAAITWSGGSTYYADSVKGRFTISRDNAKNTVYLQMNSLKPEDTAVYYCAVDYTPEDWGDDYWGQGTQVTVSS”, with “low polyreactivity”.
The same measure for “QVQLVESGGGLVQAGGSLRLSCAASGITFYRYAMGWYRQSPGKETQLVAAIRRAGSTYYADSVKGRFTISRDNAKNTVYLQMNSLKPEDTAVYYCAAPYRLEPLSTHGSWGQGTQVTVSS”: “high polyreactivity”; for “QVQLVESGGGLVQAGGSLRLSCAASGITFYRYAMRWYRQAPGKERELVAAISRSGGSTYYADSVKGRFTISRDNAKNTVYLQMNILKPEDTAVYYCAAYILGNRDGYDYWGQGTQVTVSS”: “high polyreactivity”.
Regarding “QVQLVESGGGLVQAGGSLRLSCAASGITFYRYTMGWYRQAPGKERELVAAITWSGGSTYYADSVKGRFTISRDNAKNTVYLQMNSLKPEDTAVYYCAVYLPYSQRYVHYYYWGQGTQVTVSS”, the “polyreactivity (PSR sort gate)” value is listed as “high polyreactivity”.
Consider “QVQLVESGGGLVQAGGSLRLSCAASGITFYVYAMGWSRQAPGKEREFVAAISTRDGTTYAYSVKGRFTISRDNAKNTVYLQMNSLKPEDTAVYYCAAAYYYDGQQGDFDYWGQGSQVTVSS”, for which the “polyreactivity (PSR sort gate)” value is given as “low polyreactivity”.
Then “QVQLVESGGGLVQAGGSLRLSCAASGITFYVYTMGWYRQAPGKERELVAAINGSGGSTNYADSVKGRFPISRDNAKNTVYLQMNSLKPDDTAVYYCAADWSLSLYDYWGQGTQVSVSS”, with “low polyreactivity”.
Regarding “QVQLVESGGGLVQAGGSLRLSCAASGITFYWYTMGLYRQAPGKERELVAAISSRGSSTRYADSVKGRFTISRDNAKNTVYLQMNSLKPEDTAVYYCAADDLSDGYYDEAYEDNYWGQGTQVTVSS”, the “polyreactivity (PSR sort gate)” value is reported as “low polyreactivity”.
The same measure for “QVQLVESGGGLVQAGGSLRLSCAASGITFYWYTMGWYRQAPGKERELVADIDGDGGSTYYAVSVKGRFTISRDNAKNTVYLLMNSVKPEDTGVYFCAAQVWPWGYDYWGQGTQVTVSS”: “high polyreactivity”; for “QVQLVESGGGLVQAGGSLRLSCAASGITFYYNAMGWYRQAPGKERELVAAISDGSSTNYADSVKGRFTISRDTAKNTVYLQMNSLKPEDTAVYYCNADLVLFPLTWPYYYWGQGTQVTVSS”: “low polyreactivity”; for “QVQLVESGGGLVQAGGSLRLSCAASGITFYYNDMGWYRQAPGKERELVAAISSGGTTNYADSVKGRFTISRDNAKNTVYLQMNSLKPEDTAVYYCATGYAEPEWYPFVSDYDYWGQGTQVTVSS”: “low polyreactivity”.
The same measure for “QVQLVESGGGLVQAGGSLRLSCAASGITFYYYAMGWYRQAPGKLRELVARINSGGSTNYADSVKGRFTISRDNAKNTVYLQMNSLKPEDTAVYYCNAKFRFGTYKTPYDYWGQGTQVTVSS”: “low polyreactivity”; for “QVQLVESGGGLVQAGGSLRLSCAASGITFYYYAMGWYRQEPGKERELVAAINWSGTSTYYADSVKGRFTISRDNAKNTVYLQMNSLKPEDTAVYYCNAERGRSFWWAYDYWGQGTQVTVSS”: “low polyreactivity”; for “QVQLVESGGGLVQAGGSLRLSCAASGITFYYYGMGWYRQATGKERELVAAISTGGNTNYADSVKGRFTISRDNAKNTVYLQMNSLKPEDTAVYYCAASFASKYEYWGQGTQVTVSS”: “high polyreactivity”.
Then “QVQLVESGGGLVQAGGSLRLSCAASGITFYYYVMGWYRQAPGKERELVAAIDSGDSTYYADSVKGRFTISRDNAKNTVYLQMNSLKPEDTAVYYCAVDYEADNELNGPDQEYGRDSWGQGTQVTVSS”, with “low polyreactivity”.
With “QVQLVESGGGLVQAGGSLRLSCAASGITIRPYTMGWYRQAPGKERELVARISRRGGSTYYADSVKGRFTISRDNAKNTVYLQMNSLKPEDTAVYYCATRSRAHISPYDYWGQGTQVTVSS”, the “polyreactivity (PSR sort gate)” value is “high polyreactivity”.
Then “QVQLVESGGGLVQAGGSLRLSCAASGITISGYAMGWYRQAPGKERELVAAISRRGGSTYYADSVKGRFTISRDNAKNTVYLQMNSLKPEDTAVYYCARYPSRNYNYWGQGTQVTVSS”, with “high polyreactivity”; and “QVQLVESGGGLVQAGGSLRLSCAASGITIVNYVMGWYRQAPGKERELVAAISIGGGTYYADSVKGRFTISRDNAKNTVYLQMNSLKPEDTAVYYCNASYGGLSFYIGVYVTGYYYWGQGTQVTVSS”, with “low polyreactivity”.
The same measure for “QVQLVESGGGLVQAGGSLRLSCAASGITLAYNAMGLYRQAPGTEREFVAAIDVCGGRTYYADSVKGRFTISRDNAKNTVYLQMNSLKPEDTAVYYCAAADIIDHSFPYDYWGQGTQVTVSS”: “low polyreactivity”; for “QVQLVESGGGLVQAGGSLRLSCAASGITLFYYAMGWYRQAPGKERELVAVISASGGSTYYADSVKGRFTISRDNAKNTVYIQMNSLKPEDTAVYYCAAVAYWRSSSWYYYWGQGTQVTVSS”: “high polyreactivity”; for “QVQLVESGGGLVQAGGSLRLSCAASGITLGRYAMGWYRQAPGQERELVAAISSWSGGSTTYADSVKGRFTISRDNAKNTVYLQMNSLKPEDTAVYYCNARRYYGRYYLGHSDYDYWGQGTQVTVSS”: “high polyreactivity”.
The same measure for “QVQLVESGGGLVQAGGSLRLSCAASGITLGYYAMGWYRQAPGKERELVAAISYSSGSTYYADSVKGRFTIARDTAKNTVYLQMNSLKPEDTAVYYCAKYVTYYLPTYSPSGKHDYWGQVTQVTVSS”: “low polyreactivity”; for “QVQLVESGGGLVQAGGSLRLSCAASGITLINYAMGWYRQAPGKERELVAAISTSGSSTYYADSVKGRFTISRDNAKNTVYLQMNSLKPEDTAVYYCAAELDVYSLFGYWGQGTQVTVSS”: “low polyreactivity”; for “QVQLVESGGGLVQAGGSLRLSCAASGITLLYNAMGWYRQAPGKERELVAGITGRGGSTYYADSVKGRFTISRDNAKNTVSLQMNSLKPEDNAVYYCAATTDYRYVGRIVIRDDHWGQGTQVTVSS”: “low polyreactivity”.
“QVQLVESGGGLVQAGGSLRLSCAASGITLLYYAMGWYRQAPGKERELVAAISRRGGSTYYADSVKGRFTISRDNAKNTVYLQMNSLKPEDTAVYYCAAYSPYGGYHYLYDYWGQGTQVTVSS”: the “polyreactivity (PSR sort gate)” value is recorded as “high polyreactivity”.
On to “QVQLVESGGGLVQAGGSLRLSCAASGITLNRNAMGWYKQAPGKERELVARISRRGGTTYYADSVKGRFTISRDNAKNTVYLQLNSLKPEDSAVYYCAKVRRRWGYPSYSYPYGYWGQGTQVTVSS”, for which the “polyreactivity (PSR sort gate)” value is “high polyreactivity”.
For “QVQLVESGGGLVQAGGSLRLSCAASGITLQFYAIGWYRQAPGKERELVAAISISGGRTYYADSVKGRFTISRDNAKNTVYLQMNSLKPEDTAVYYCAAYLQRAYRYGYWGQGTQVTVSS”, the “polyreactivity (PSR sort gate)” value was “high polyreactivity”.
For “QVQLVESGGGLVQAGGSLRLSCAASGITLRRYAMGWYRQAPGKDRELVDVISVSGGRTHYADSVKGRFTISRDNAKNSVYLQMNSLNPEDTAVYYGAAHFSYRYYTDEVGYWGQGTQVTVSS”, the “polyreactivity (PSR sort gate)” value is “high polyreactivity”.
The same measure for “QVQLVESGGGLVQAGGSLRLSCAASGITLSANAMGWYRQAPGKERELVATITWSGGSTYYADSVKGRFTISRDNAKNTVYLQMNSLKPEDTAVYYCNARSYDEYPYYSYNYWGQGTQVTVSS”: “low polyreactivity”; for “QVQLVESGGGLVQAGGSLRLSCAASGITLSWYAMGWSRQAPGKERELVAGISGRGGRTYYADSVKGRFTISRDNAKNTVYLQMNSLKPEDTAVYYCAADCPGYRSYDYWGQGTQVTVSS”: “high polyreactivity”.
As to “QVQLVESGGGLVQAGGSLRLSCAASGITLTIYVMGWYRQAPGKEREFVAAISKSGGSTYYADSVKGRFTISRDNAKNTVYLQMNSLKPEDTAVYYCAADVILYDFADYYVIYDYWGQGTQVTVSS”, the “polyreactivity (PSR sort gate)” value is “high polyreactivity”.
As to “QVQLVESGGGLVQAGGSLRLSCAASGITLTKNAMGWYSQAPGKERELVAGITRGSRTNYADSVKGRFTISRDNAKNTVYLQMNSLKPEDTAVYYCAASYWPYRGPVGGSKMYYWGQGTQVTVSS”, the “polyreactivity (PSR sort gate)” value is given as “high polyreactivity”.
The same measure for “QVQLVESGGGLVQAGGSLRLSCAASGITLYANAMGWYREAPGKERELVAVISKGSGSTYYPDSVKGRFTISRDNAKNTVYLQMNSLKPEDTAVYYCAAGRKGSMYYWGQGTQVTVSS”: “high polyreactivity”.
